Where no end group is shown, it is not given here.
How the values were obtained:
[1] = target: SARS-COV-2 Spike glycoprotein receptor binding domain (RBD) (SARS-CoV-2, UniProt P0DTC2 319-541)
[2] = target: SARS-COV-2 Spike glycoprotein (SARS-CoV-2, UniProt P0DTC2 14-1208); test: estimated Kd for Spike (avidity), Table 10

Row | Binder | Kd [1] | Kd [2]
1 | LCB1-4 (designed binder, also called LCB1_v1.1) DKENILQKIYEIMKTLDQLGHAEASMQVSDLIYEFMKQGDERLLEEAERLLEEVER | 0.2 nM | 0.1 nM
2 | LCB1-5 (designed binder) DKENILQKIYEIMKTLDQLGHAEASMNVSDLIYEFMKQGDERLLEEAERLLEEVER | 0.2 nM | 0.1 nM
3 | LCB1_v1.2 (designed binder) DKENILQKIYEIMKTLDQLGHAEASMYVSDLIYEFMKQGDERLLEEAERLLEEVER | 0.2 nM | 0.1 nM
4 | LCB1_v1.4 (designed binder) DKENILQKIYEIMKTLEQLGHAEASMQVSDLIYEFMKQGDENLLEEAEQLLQEVER | 0.2 nM | 0.1 nM
5 | LCB1_v1.5 (LCB1_v1.3 with N-link Glycosylation) (designed binder, also: N-linked glycosylation, site not given here) DKENILQKIYEIMKTLEQLGHAEASMNVSDLIYEFMKQGDERLLEEAERLLEEVER | 0.2 nM | 0.1 nM
6 | 36175 (5_LCB1_linker14) (designed binder) DKEWILQKIYEIMRLLDELGHAEASMRVSDLIYEFMKKGDERLLEEAERLLEEVERGGSGSSGGSGSGSGDKEWILQKIYEIMRLLDELGHAEASMRVSDLIYEFMKKGDERLLEEAERLLEEVERGGSGSSGGSGSGSGDKEWILQKIYEIMRLLDELGHAEASMRVSDLIYEFMKKGDERLLEEAERLLEEVERGGSGSSGGSGSGSGDKEWILQKIYEIMRLLDELGHAEASMRVSDLIYEFMKKGDERLLEEAERLLEEVERGGSGSSGGSGSGSGDKEWILQKIYEIMRLLDELGHAEASMRVSDLIYEFMKKGDERLLEEAERLLEEVER | 0.2 nM | 0.1 nM
7 | Mucin_LCB1_v1.1_Cys (designed binder) AKAKAKAKAKAKAKAKAKAKGGDKENILQKIYEIMKTLDQLGHAEASMQVSDLIYEFMKQGDERLLEEAERLLEEVERC | 0.2 nM | 0.1 nM
8 | Mucin_LCB1_v1.3 (designed binder) AKAKAKAKAKAKAKAKAKAKGGDKENILQKIYEIMKTLEQLGHAEASMQVSDLIYEFMKQGDERLLEEAERLLEEVER | 0.2 nM | 
9 | LCB1_v1.1_Cys (designed binder) DKENILQKIYEIMKTLDQLGHAEASMQVSDLIYEFMKQGDERLLEEAERLLEEVERC | 0.2 nM | 0.1 nM
10 | LCB2-1 (designed binder) SDDEDSVRYLLYMAELRYEQGNPEKAKKILEMAEFIAKRNNNEELERLVREVKKRL | 0.2 nM | 0.1 nM
11 | LCB2-2 (designed binder) SDDEDAVRYLLYMAELLYKQGNPEEAKKLLELAEFIAKRNNNEELERLVREVKKRL | 0.2 nM | 0.1 nM
12 | LCB3-2 (designed binder) NDDELLMLVTDLVAEALLFAKDEEIKKRVFTLFELADKAYKNNDRDTLSKVVSELKELLERLQ | 0.2 nM | 
13 | LCB3_v1.2 (designed binder, also called LCB3-3) NDDELHMQMTDLVYEALHFAKDEEIQKHVFQLFEKATKAYKNKDRQKLEKVVEELKELLERLLS | 0.2 nM | 
14 | LCB3-4 (designed binder) NDDELHMQMTDLVYEALHFAKDEEIQKHVFQLFENATKAYKNKDRQKLEKVVEELKELLERLLS | 0.2 nM | 
15 | LCB3_v1.1 (designed binder) NDDELHMQMTDLVYEALHFAKDEEFQKHVFQLFEKATKAYKNNDRQKLEKVVEELKELLERLLS | 0.2 nM | 
16 | LCB3_v1.3 (designed binder) NDDELHMQMTDLVYEALHFAKDEEFQKHVFQLFEKATKAYKNKDRQKLEKVVEELKELLERLLS | 0.2 nM | 
17 | LCB3_v1.4 (designed binder) NDDELHMQMTDLVYEALHKAKDEEFQKHVFQLFEKATKARKNKDRQKLEKVVEELKELLERLLS | 0.2 nM | 
18 | LCB3_v1.5 (designed binder) NDDELHMQMTDLVYEALHKAKDEEMQKRVFQLFEQADKAYKTKDRQKLEKVVEELKELLERLLS | 0.2 nM | 
19 | LCB4-1 (designed binder) QREKRLKQLEMLLEYAIERNDPYLMFDVAVEMLRLAEENNDERIIERAKRILEEYE | 0.2 nM | 0.1 nM

Row | Binder | Kd [1] | Kd [2]
20 | LCB4-2 (designed binder) DREERLKYLEMLLELAVERNDPYLIFDVAIELLRLAEENNDERIYERAKRILEEVE | 0.2 nM | 0.1 nM
21 | LCB5-1 (designed binder) SLEELKEQVKELKKELSPEMRRLIEEALRFLEEGNPAMAMMVLSDLVYQLGDPRVIDLYMLVTKT | 0.2 nM | 
22 | LCB5-2 (designed binder) SLEEVKEILKELKKELSPEDRRLIEEALRLLEEGNPAMASMVLSDLVFLLGDPRVIELLMLVTKT | 0.2 nM | 
23 | LCB7-1 (designed binder) DDDIRYLIYMAKLRLEQGNPEEAEKVLEMARFLAERLGMEELLKEVRELLRKIEELR | 0.2 nM | 0.1 nM
24 | LCB7-2 (designed binder) DDDVRYLIYMAKLLLEQGNPEEAEKVLESARFAAELLGNEELLKEVRELLRKIEELR | 0.2 nM | 0.1 nM
25 | LCB8-1 (designed binder) PIIELLREAKEKNDEFAISDALYLVNELLQRTGDPRLEEVLYLIWRALKEKDPRLLDRAIELFER | 0.2 nM | 
26 | LCB8-2 (designed binder) PVTELLREAKEKNDPMAISDALFLVFELAQRTGDPRLEEVLFLIWRALKEKDPRLLDRAIELFER | 0.2 nM | 
27 | AHB1-1 (designed binder) DEDLEELERLYRKAEEVAKEAKDASRRGDDERAKEQMERAMRLFDQVFELAQELQEKQTDGNRQKATHLDKAVKEAADELYQRVR | 0.2 nM | 
28 | AHB1-2 (designed binder) DEDLEELERLYRKAEEVAKEAEEASRRGDKERAKELLERALHLFDQVFELAQELQEKLTDEKRQKATHLDKAVHEAADELYQRVR | 0.2 nM | 
29 | AHB2-1 (designed binder) ELEERVMHLLDQVSELAHELLHKLTGEELQRATHFDKWANEAILELIKSDDEREIREIEEEARRILEHLEELARK | 0.2 nM | 
30 | AHB2-2 (designed binder) ELEEQVMHVLDQVSELAHELLHKLTGEELERAAYFNWWATEMMLELIKSDDEREIREIEEEARRILEHLEELARK | 0.2 nM | 0.1 nM
31 | LCB1-24GS-LCB1 (designed binder) DKEWILQKIYEIMRLLDELGHAEASMRVSDLIYEFMKKGDERLLEEAERLLEEVERGGGSGGGSSGGSGGSSGGGSGGGSDKEWILQKIYEIMRLLDELGHAEASMRVSDLIYEFMKKGDERLLEEAERLLEEVER | 0.2 nM | 
32 | LCB1-36GS-LCB1 (designed binder) DKEWILQKIYEIMRLLDELGHAEASMRVSDLIYEFMKKGDERLLEEAERLLEEVERGGGSGGGSGGSGGSGGGSGGGSGSGGSGGGGSGGGSDKEWILQKIYEIMRLLDELGHAEASMRVSDLIYEFMKKGDERLLEEAERLLEEVER | 0.2 nM | 
33 | LCB1_v1.1-GSLCB1_v1.1 (1GS1) (designed binder) DKENILQKIYEIMKTLDQLGHAEASMQVSDLIYEFMKQGDERLLEEAERLLEEVERGGGGSGGGGSGGGGSGGGGSGGGGSGGGGSGGGGSGGGGSGGGGSGGGGSGGGGSGGGGSGGGGSGGGGSGGGGSDKENILQKIYEIMKTLDQLGHAEASMQVSDLIYEFMKQGDERLLEEAERLLEEVER | 0.2 nM | 0.1 nM
34 | LCB1_v1.1-PRO-LCB1_v1.1 (1PRO1) (designed binder) DKENILQKIYEIMKTLDQLGHAEASMQVSDLIYEFMKQGDERLLEEAERLLEEVERAGSGGSGGSGGSPVPSTPPTPSPSTPPTPSPSPVPSTPPTPSPSTPPTPSPSPVPSTPPTPSPSTPPTPSPSASGDKENILQKIYEIMKTLDQLGHAEASMQVSDLIYEFMKQGDERLLEEAERLLEEVER | 0.2 nM | 0.1 nM
35 | LCB3_v1.2-GS3-LCB3_v1.2 (3GS3) (designed binder) NDDELHMQMTDLVYEALHFAKDEEIQKHVFQLFEKATKAYKNKDRQKLEKVVEELKELLERLLSGGGGSGGGGSGGGGSGGGGSGGGGSGGGGSGGGGSGGGGSGGGGSGGGGSGGGGSGGGGSGGGGSGGGGSGGGGSNDDELHMQMTDLVYEALHFAKDEEIQKHVFQLFEKATKAYKNKDRQKLEKVVEELKELLERLLS | 0.2 nM | 0.1 nM
36 | LCB3_v1.2-PRO-LCB3_v1.2 (3PRO3) (designed binder) NDDELHMQMTDLVYEALHFAKDEEIQKHVFQLFEKATKAYKNKDRQKLEKVVEELKELLERLLSAGSGGSGGSGGSPVPSTPPTPSPSTPPTPSPSPVPSTPPTPSPSTPPTPSPSPVPSTPPTPSPSTPPTPSPSASGNDDELHMQMTDLVYEALHFAKDEEIQKHVFQLFEKATKAYKNKDRQKLEKVVEELKELLERLLS | 0.2 nM | 0.1 nM
37 | LCB1_v1.1-GS-LCB3_v1.2 (1GS3) (designed binder) DKENILQKIYEIMKTLDQLGHAEASMQVSDLIYEFMKQGDERLLEEAERLLEEVERGGGGSGGGGSGGGGSGGGGSGGGGSGGGGSGGGGSGGGGSGGGGSGGGGSGGGGSGGGGSGGGGSGGGGSGGGGSNDDELHMQMTDLVYEALHFAKDEEIQKHVFQLFEKATKAYKNKDRQKLEKVVEELKELLERLLS | 0.2 nM | 0.1 nM

— patent publication US20230250134A1 (University of Washington, published 2023)
